The source of these data is publication PMC6539025, “P-element Somatic Inhibitor Protein Binding a Target Sequence in dsx Pre-mRNA Conserved in Bombyx mori and Spodoptera litura”.

One data set deals with MBP-BmPSI (Bombyx mori, UniProt A8R081 1-703). The data set is described as follows: ITC; 25 C; n = 1.02; RNA dissolved in protein purification buffer, 20 mM Tris, 20 mM NaCl (pH not given); ITC at 25 C; EMSA buffer not given. The settings on record: protein: recombinant; tags: N-terminal His6-MBP-TEV.
Another data set concerns the target SlPSI L127G (Spodoptera litura, UniProt A0A9J7DW37 1-732, L127G). The data set is described as follows: competition; unlabeled CE1 against biotin-CE1; RNA dissolved in protein purification buffer, 20 mM Tris, 20 mM NaCl (pH not given); ITC at 25 C; EMSA buffer not given. The settings on record: protein: recombinant; tags: N-terminal His6-MBP-TEV. (Mobility shift assays separate free from complexed probe on a gel.)

SlPSI L127G, sequence (A0A9J7DW37 entry or part of it L127G | L127G L127G): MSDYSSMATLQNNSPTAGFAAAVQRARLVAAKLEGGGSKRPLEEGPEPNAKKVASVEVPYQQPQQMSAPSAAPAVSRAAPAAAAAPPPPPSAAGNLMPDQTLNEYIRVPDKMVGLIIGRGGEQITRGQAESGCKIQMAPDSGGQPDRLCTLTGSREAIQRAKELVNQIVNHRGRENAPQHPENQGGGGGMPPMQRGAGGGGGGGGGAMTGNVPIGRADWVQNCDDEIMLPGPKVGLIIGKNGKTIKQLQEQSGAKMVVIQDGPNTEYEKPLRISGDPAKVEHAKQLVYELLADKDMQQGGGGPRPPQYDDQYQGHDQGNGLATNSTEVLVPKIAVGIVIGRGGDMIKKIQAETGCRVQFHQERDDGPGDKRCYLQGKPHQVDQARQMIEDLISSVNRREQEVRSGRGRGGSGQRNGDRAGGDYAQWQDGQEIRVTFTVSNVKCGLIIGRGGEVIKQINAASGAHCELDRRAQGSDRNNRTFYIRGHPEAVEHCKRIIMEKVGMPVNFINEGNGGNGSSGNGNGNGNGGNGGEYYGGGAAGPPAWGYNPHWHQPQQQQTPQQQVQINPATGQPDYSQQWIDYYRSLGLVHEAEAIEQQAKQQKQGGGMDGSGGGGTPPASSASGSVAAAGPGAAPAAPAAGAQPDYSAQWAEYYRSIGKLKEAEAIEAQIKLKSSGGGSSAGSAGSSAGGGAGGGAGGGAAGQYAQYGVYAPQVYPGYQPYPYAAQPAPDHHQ
MBP-BmPSI, sequence (A8R081 entry or part of it): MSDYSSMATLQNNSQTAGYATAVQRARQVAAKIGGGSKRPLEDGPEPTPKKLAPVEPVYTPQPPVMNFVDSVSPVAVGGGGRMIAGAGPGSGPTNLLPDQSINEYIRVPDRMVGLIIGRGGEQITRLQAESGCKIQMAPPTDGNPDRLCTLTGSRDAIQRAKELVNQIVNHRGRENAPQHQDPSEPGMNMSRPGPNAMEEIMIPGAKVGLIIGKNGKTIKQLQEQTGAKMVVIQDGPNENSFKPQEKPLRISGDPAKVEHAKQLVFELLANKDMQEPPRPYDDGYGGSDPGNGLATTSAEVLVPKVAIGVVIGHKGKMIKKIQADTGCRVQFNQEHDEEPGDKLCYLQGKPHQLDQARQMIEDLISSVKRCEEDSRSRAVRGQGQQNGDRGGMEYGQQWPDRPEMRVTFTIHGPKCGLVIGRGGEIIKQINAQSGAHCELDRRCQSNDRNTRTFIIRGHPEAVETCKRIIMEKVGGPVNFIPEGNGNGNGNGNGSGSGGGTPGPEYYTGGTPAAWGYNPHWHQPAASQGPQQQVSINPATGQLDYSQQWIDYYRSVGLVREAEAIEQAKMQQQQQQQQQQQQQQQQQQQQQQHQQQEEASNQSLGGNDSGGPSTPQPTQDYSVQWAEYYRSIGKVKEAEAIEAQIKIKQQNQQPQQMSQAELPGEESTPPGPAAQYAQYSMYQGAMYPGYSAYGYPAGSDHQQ

In the case of UUAAUAAUAUAAGUGGUGUA (ssRNA) [CE1 RNA, unlabeled], in the data set with MBP-BmPSI, the Ka was 1.74e+07 M⁻¹. In the data set with SlPSI L127G, the binding result is “binds”.
